In data set [1] the target is T1, PvMYB4a (Panicum virgatum).
T1 chain: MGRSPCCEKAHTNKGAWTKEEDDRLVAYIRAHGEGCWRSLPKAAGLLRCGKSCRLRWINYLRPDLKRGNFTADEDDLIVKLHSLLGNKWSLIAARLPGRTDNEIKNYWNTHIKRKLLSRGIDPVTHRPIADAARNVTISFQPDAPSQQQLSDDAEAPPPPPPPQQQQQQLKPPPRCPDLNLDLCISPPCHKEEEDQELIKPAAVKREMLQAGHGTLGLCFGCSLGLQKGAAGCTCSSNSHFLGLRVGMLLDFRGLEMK
Put plainly: EMSA; 5 mM MgCl2, 50 mM KCl, pH 7.5, 4 C. The note with it: tags: N-terminal His (pDEST17), E. coli BL21 DE3; label: biotin. The protocol: The present and previous studies indicate that subfamily 4 MYB proteins directly bind the AC cis-elements in downstream monolignol biosynthesis gene promoters (Legay et al., 2007; Sonbol et al., 2009). […] Gel shift assays were performed to test for possible direct binding of PvMYB4 to different AtGA20-ox2 promoter regions in vitro. Analysis of the AtGA20-ox2 promoter 1500 bp upstream of the transcription start site identified an AC-II (−1200 bp) and an AC-IV (−150 bp) element. […] This is consistent with the direct binding of PvMYB4 to the synthetic AC-II elements (FIG. 4F). Binding of PvMYB4 to the AC elements in the GA20-ox promoter appears to inhibit expression of the gene.
PvMYB4a was cloned into the pDEST17 expression vector by the Gateway cloning method (Invitrogen). After sequencing, the plasmid was transformed into BL21 DE3 E. coli competent cells. IPTG was added to induce expression of PvMYB4. The recombinant protein was purified with the MagneHis™ Protein Purification System (Promega Corporation, Madison, Wis.) then concentrated with an Amicon Ultra-15 Centrifugal Filter (Millipore Corporation, Billerica, Mass.). About 700-1000 ng of purified PvMYB4 protein was used for EMSA in each reaction. […] The DNA was transferred onto Nylon membranes and signal detected with a LightShift® Chemiluminescent EMSA Kit (Thermo Fisher Scientific Inc. Rockford, Ill.) using standard protocols.
(In general: A gel shift assay detects complexes by their altered migration in electrophoresis.)

The target of data set [2] is T1, PvMYB4a. Description: EMSA; 5 mM MgCl2, 50 mM KCl, pH 7.5, 4 C. As to conditions: tags: N-terminal His (pDEST17), E. coli BL21 DE3; label: biotin. The protocol: PvMYB4a was cloned into the pDEST17 expression vector by the Gateway cloning method (Invitrogen). After sequencing, the plasmid was transformed into BL21 DE3 E. coli competent cells. IPTG was added to induce expression of PvMYB4. The recombinant protein was purified with the MagneHis™ Protein Purification System (Promega Corporation, Madison, Wis.) then concentrated with an Amicon Ultra-15 Centrifugal Filter (Millipore Corporation, Billerica, Mass.). About 700-1000 ng of purified PvMYB4 protein was used for EMSA in each reaction. The probes were labeled by annealing biotin-labeled olignucleotides or PCR products, then purified with a gel extraction kit (QIAGEN). Binding conditions were 12 mM Tris-HCl (pH 7.5), 20 mM NaCl, 50 mM KCl, 5 mM MgCl₂, 1 mM DTT, 0.2 mM EDTA, 2.5% glycerol, 1 mM β-ME, 0.05% NP-40 and 2 fmol biotin-labeled probes. The samples were loaded and run in a 6% DNA retardant gel (Invitrogen) in the cold room after the reactions had been incubated at 4° C. for 30 minutes. The DNA was transferred onto Nylon membranes and signal detected with a LightShift® Chemiluminescent EMSA Kit (Thermo Fisher Scientific Inc. Rockford, Ill.) using standard protocols.

B1: AtGA20ox2 promoter AC-IV (dsDNA)
DNA 1: ATTATAAGAAAGATTAAAAAACCAAACAAATGTACACTAACATGACT
DNA 2: AGTCATGTTAGTGTACATTTGTTTGGTTTTTTAATCTTTCTTATAAT
In the case of B1, in the data set with PvMYB4a [1], the binding result is reported as “no binding”.

B2: AtGA20ox2 promoter AC-II (dsDNA)
DNA 1: CTTAACTCTTAACTGGTCGAACCAACCATGAATGATTTGGGCATAAT
DNA 2: ATTATGCCCAAATCATTCATGGTTGGTTCGACCAGTTAAGAGTTAAG
Turning to B2, in the data set with PvMYB4a [1], the binding result is on record as “binds”.

B3: AC-III x3 EMSA probe (dsDNA)
DNA 1: CCAGTCCACCTAACTCTACCTAACTCTACCTAACGCTGTTC
DNA 2: GAACAGCGTTAGGTAGAGTTAGGTAGAGTTAGGTGGACTGG
Turning to B3, the binding result in the data set with PvMYB4a [2] is recorded as “binds”.

B4: AC-IV x3 EMSA probe (dsDNA)
DNA 1: CCAGTCCACCAAACTCTACCAAACTCTACCAAACGCTGTTC
DNA 2: GAACAGCGTTTGGTAGAGTTTGGTAGAGTTTGGTGGACTGG
B4: the binding result in the data set with PvMYB4a [2] is reported as “no binding”.

B5: AC-I x3 EMSA probe (dsDNA)
DNA 1: CGGTACCAGTCCACCTACCGCCACCTACCGCCACCTACCGCTGTTCTCGA
DNA 2: TCGAGAACAGCGGTAGGTGGCGGTAGGTGGCGGTAGGTGGACTGGTACCG
For B5, in the data set with PvMYB4a [2], the binding result is listed as “binds”.

B6: AC-II x3 EMSA probe (dsDNA)
DNA 1: CGGTACCAGTCCACCAACCGCCACCAACCGCCACCAACCGCTGTTCTCGA
DNA 2: TCGAGAACAGCGGTTGGTGGCGGTTGGTGGCGGTTGGTGGACTGGTACCG
Consider B6, for which the binding result with PvMYB4a [2] is given as “binds”.

For the origin of these results see patent US20120322122, “COMPOSITIONS AND METHODS FOR IMPROVED PLANT FEEDSTOCK” (published 2012).
